For orientation: Kd means the constant that tells how readily two partners part at equilibrium. A lower Kd goes with higher affinity. In general, koff refers to the first-order rate constant of dissociation. Broadly, the kon is the second-order rate constant of association. A higher kon goes with fast association.

Here are results for 2 substances from patent publication US20020177126A1.

The target in assay [1] is RSV F glycoprotein (NUF4) (respiratory syncytial virus (RSV)) (UniProt P03420). Description: BIAcore, Mab vs NUF4, 1:1. (Surface plasmon resonance follows binding to a sensor surface in real time, without labels.)
The target is the same in assay [2]. Description: BIAcore, Mab vs NUF4, 2:1.
The target is the same in assay [3]. Description: ITC, NUF4 titrated into antibody. (In general: In ITC the heat of successive injections is recorded.)
Assay [4] shares this target. Description: ITC, NUF4 titrated into antibody, 35 °C.

RSV F glycoprotein (NUF4) (respiratory syncytial virus (RSV)), sequence (P03420 26-524): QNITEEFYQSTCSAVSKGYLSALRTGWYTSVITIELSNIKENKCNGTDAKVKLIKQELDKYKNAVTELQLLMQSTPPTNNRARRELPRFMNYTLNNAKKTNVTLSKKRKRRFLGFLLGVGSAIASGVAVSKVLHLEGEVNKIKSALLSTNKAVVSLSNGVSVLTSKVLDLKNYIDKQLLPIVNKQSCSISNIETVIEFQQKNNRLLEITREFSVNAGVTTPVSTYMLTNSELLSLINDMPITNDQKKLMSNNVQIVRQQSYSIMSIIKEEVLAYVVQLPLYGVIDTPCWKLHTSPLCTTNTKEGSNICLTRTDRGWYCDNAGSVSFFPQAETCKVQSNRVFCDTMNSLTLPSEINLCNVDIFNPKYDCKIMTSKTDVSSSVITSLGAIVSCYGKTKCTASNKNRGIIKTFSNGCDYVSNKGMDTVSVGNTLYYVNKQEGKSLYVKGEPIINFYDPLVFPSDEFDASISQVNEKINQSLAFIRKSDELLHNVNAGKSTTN
A4B4 (monoclonal antibody), sequence (VH): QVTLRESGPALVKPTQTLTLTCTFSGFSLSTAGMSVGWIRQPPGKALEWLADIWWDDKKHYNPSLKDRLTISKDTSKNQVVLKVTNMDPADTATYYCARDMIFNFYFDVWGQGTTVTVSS
A4B4 (monoclonal antibody), sequence (VL): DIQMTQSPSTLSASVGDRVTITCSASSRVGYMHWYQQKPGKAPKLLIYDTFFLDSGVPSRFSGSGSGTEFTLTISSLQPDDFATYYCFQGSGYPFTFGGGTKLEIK
SYNAGIS® (antibody), sequence (VH): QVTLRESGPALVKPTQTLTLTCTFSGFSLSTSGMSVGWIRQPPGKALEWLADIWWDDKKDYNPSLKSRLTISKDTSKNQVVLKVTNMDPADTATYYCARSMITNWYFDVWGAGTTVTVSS
SYNAGIS® (antibody), sequence (VL): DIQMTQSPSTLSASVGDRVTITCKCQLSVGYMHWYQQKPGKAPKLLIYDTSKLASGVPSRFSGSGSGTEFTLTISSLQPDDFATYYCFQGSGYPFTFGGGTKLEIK

As for A4B4 (monoclonal antibody), in assay [1], the Kd was 0.57 nM, the koff turned out to be 0.000282 s⁻¹, the kon came to 496000 M⁻¹ s⁻¹ and the number in parentheses after KD (fold vs SYNAGIS) was found to be 15 fold. Besides, in assay [2], the Kd amounted to 2 nM, the koff is 0.000401 s⁻¹, the kon was determined as 203000 M⁻¹ s⁻¹ and the number in parentheses after KD (fold vs SYNAGIS) turned out to be 156 fold. The substance also displayed a Hb in kJ mol^-1 (binding enthalpy) in assay [3] of 22.2 kcal/mol. Besides, in assay [4], the Ka was found to be 2.69e+08 M⁻¹ and the Kd came out at 3.7 nM.

Take SYNAGIS® (antibody): in assay [1], the Kd stood at 8.7 nM, the koff is 0.00265 s⁻¹, the kon was determined as 304000 M⁻¹ s⁻¹ and the number in parentheses after KD (fold vs SYNAGIS) is 1 fold. Besides, in assay [2], the Kd was found to be 312 nM, the koff came out at 0.0242 s⁻¹, the kon is 78000 M⁻¹ s⁻¹ and the number in parentheses after KD (fold vs SYNAGIS) came to 1 fold. Also, the Hb in kJ mol^-1 (binding enthalpy) in assay [3] is 17 kcal/mol. The Ka in assay [4] was 1.23e+06 M⁻¹.
